# According to the supplement of paper PMC11316812:
# ± gives the standard deviation of the averaged measurements.
# What was measured:
# MCF7 = assay: percentage of EdU-negative (G0-arrested) nuclei per well, 72 h; higher = more G0 arrest; conditions: reference: sequence is the full UniProt precursor, the tested protein was the secreted form or ectodomain
# hTERT-HMEC = assay: as above; conditions: reference: sequence is the full UniProt precursor, the tested protein was the secreted form or ectodomain
# [1] = protein concentration 0.01525 µM
# [2] = protein concentration 0.1525 µM
# [3] = protein concentration 0.0225 µM
# [4] = protein concentration 0.01975 µM
# [5] = protein concentration 0.1975 µM
# [6] = protein concentration 0.0289325 µM
# [7] = protein concentration 0.289325 µM
# [8] = protein concentration 0.03125 µM
# [9] = protein concentration 0.3125 µM
# [10] = protein concentration 0.0357143 µM
# [11] = protein concentration 0.357143 µM
# 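Note: secreted proteins added to cultured cells, EdU pulse at the end, nuclei found by Hoechst imaging, EdU status from nuclear versus surrounding ring intensity ratio, PBS as neutral control.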
sequence,measurement,setting,value
MGPGRPAPAPWPRHLLRCVLLLGCLHLGRPGAPGDAALPEPNVFLIFSHGLQGCLEAQGGQVRVTPACNTSLPAQRWKWVSRNRLFNLGTMQCLGTGWPGTNTTASLGMYECDREALNLRWHCRTLGDQLSLLLGARTSNISKPGTLERGDQTRSGQWRIYGSEEDLCALPYHEVYTIQGNSHGKPCTIPFKYDNQWFHGCTSTGREDGHLWCATTQDYGKDERWGFCPIKSNDCETFWDKDQLTDSCYQFNFQSTLSWREAWASCEQQGADLLSITEIHEQTYINGLLTGYSSTLWIGLNDLDTSGGWQWSDNSPLKYLNWESDQPDNPSEENCGVIRTESSGGWQNRDCSIALPYVCKKKPNATAEPTPPDRWANVKVECEPSWQPFQGHCYRLQAEKRSWQESKKACLRGGGDLVSIHSMAELEFITKQIKQEVEELWIGLNDLKLQMNFEWSDGSLVSFTHWHPFEPNNFRDSLEDCVTIWGPEGRWNDSPCNQSLPSICKKAGQLSQGAAEEDHGCRKGWTWHSPSCYWLGEDQVTYSEARRLCTDHGSQLVTITNRFEQAFVSSLIYNWEGEYFWTALQDLNSTGSFFWLSGDEVMYTHWNRDQPGYSRGGCVALATGSAMGLWEVKNCTSFRARYICRQSLGTPVTPELPGPDPTPSLTGSCPQGWASDTKLRYCYKVFSSERLQDKKSWVQAQGACQELGAQLLSLASYEEEHFVANMLNKIFGESEPEIHEQHWFWIGLNRRDPRGGQSWRWSDGVGFSYHNFDRSRHDDDDIRGCAVLDLASLQWVAMQCDTQLDWICKIPRGTDVREPDDSPQGRREWLRFQEAEYKFFEHHSTWAQAQRICTWFQAELTSVHSQAELDFLSHNLQKFSRAQEQHWWIGLHTSESDGRFRWTDGSIINFISWAPGKPRPVGKDKKCVYMTASREDWGDQRCLTALPYICKRSNVTKETQPPDLPTTALGGCPSDWIQFLNKCFQVQGQEPQSRVKWSEAQFSCEQQEAQLVTITNPLEQAFITASLPNVTFDLWIGLHASQRDFQWVEQEPLMYANWAPGEPSGPSPAPSGNKPTSCAVVLHSPSAHFTGRWDDRSCTEETHGFICQKGTDPSLSPSPAALPPAPGTELSYLNGTFRLLQKPLRWHDALLLCESRNASLAYVPDPYTQAFLTQAARGLRTPLWIGLAGEEGSRRYSWVSEEPLNYVGWQDGEPQQPGGCTYVDVDGAWRTTSCDTKLQGAVCGVSSGPPPPRRISYHGSCPQGLADSAWIPFREHCYSFHMELLLGHKEARQRCQRAGGAVLSILDEMENVFVWEHLQSYEGQSRGAWLGMNFNPKGGTLVWQDNTAVNYSNWGPPGLGPSMLSHNSCYWIQSNSGLWRPGACTNITMGVVCKLPRAEQSSFSPSALPENPAALVVVLMAVLLLLALLTAALILYRRRQSIERGAFEGARYSRSSSSPTEATEKNILVSDMEMNEQQE [Q9UBG0],percentage of EdU-negative,MCF7; [1],25.5 ± 1.7%
same,percentage of EdU-negative,MCF7; [2],24.5 ± 0.7%
same,percentage of EdU-negative,hTERT-HMEC; [1],4.54 ± 0.35%
same,percentage of EdU-negative,hTERT-HMEC; [2],6.08 ± 1.1%
MGPISAPSCRWRIPWQGLLLTASLFTFWNPPTTAQLTIEAVPSNAAEGKEVLLLVHNLPQDPRGYNWYKGETVDANRRIIGYVISNQQITPGPAYSNRETIYPNASLLMRNVTRNDTGSYTLQVIKLNLMSEEVTGQFSVHPETPKPSISSNNSNPVEDKDAVAFTCEPETQNTTYLWWVNGQSLPVSPRLQLSNGNRTLTLLSVTRNDVGPYECEIQNPASANFSDPVTLNVLYGPDAPTISPSDTYYHAGVNLNLSCHAASNPPSQYSWSVNGTFQQYTQKLFIPNITTKNSGSYACHTTNSATGRNRTTVRMITVSDALVQGSSPGLSARATVSIMIGVLARVALI,percentage of EdU-negative,MCF7; [3],25.7 ± 1.8%
same,percentage of EdU-negative,MCF7; protein concentration 0.225 µM,27.4 ± 2.2%
same,percentage of EdU-negative,hTERT-HMEC; [3],5.19 ± 1.8%
same,percentage of EdU-negative,hTERT-HMEC; protein concentration 0.225 µM,9.55 ± 1.5%
MGPLINRCKKILLPTTVPPATMRIWLLGGLLPFLLLLSGLQRPTEGSEVAIKIDFDFAPGSFDDQYQGCSKQVMEKLTQGDYFTKDIEAQKNYFRMWQKAHLAWLNQGKVLPQNMTTTHAVAILFYTLNSNVHSDFTRAMASVARTPQQYERSFHFKYLHYYLTSAIQLLRKDSIMENGTLCYEVHYRTKDVHFNAYTGATIRFGQFLSTSLLKEEAQEFGNQTLFTIFTCLGAPVQYFSLKKEVLIPPYELFKVINMSYHPRGDWLQLRSTGNLSTYNCQLLKASSKKCIPDPIAIASLSFLTSVIIFSKSRV,percentage of EdU-negative,MCF7; [3],23.9 ± 0.46%
same,percentage of EdU-negative,MCF7; protein concentration 0.225 µM,27.2 ± 0.8%
same,percentage of EdU-negative,hTERT-HMEC; [3],5.08 ± 0.63%
same,percentage of EdU-negative,hTERT-HMEC; protein concentration 0.225 µM,6.69 ± 0.27%
MGPLMVLFCLLFLYPGLADSAPSCPQNVNISGGTFTLSHGWAPGSLLTYSCPQGLYPSPASRLCKSSGQWQTPGATRSLSKAVCKPVRCPAPVSFENGIYTPRLGSYPVGGNVSFECEDGFILRGSPVRQCRPNGMWDGETAVCDNGAGHCPNPGISLGAVRTGFRFGHGDKVRYRCSSNLVLTGSSERECQGNGVWSGTEPICRQPYSYDFPEDVAPALGTSFSHMLGATNPTQKTKESLGRKIQIQRSGHLNLYLLLDCSQSVSENDFLIFKESASLMVDRIFSFEINVSVAIITFASEPKVLMSVLNDNSRDMTEVISSLENANYKDHENGTGTNTYAALNSVYLMMNNQMRLLGMETMAWQEIRHAIILLTDGKSNMGGSPKTAVDHIREILNINQKRNDYLDIYAIGVGKLDVDWRELNELGSKKDGERHAFILQDTKALHQVFEHMLDVSKLTDTICGVGNMSANASDQERTPWHVTIKPKSQETCRGALISDQWVLTAAHCFRDGNDHSLWRVNVGDPKSQWGKEFLIEKAVISPGFDVFAKKNQGILEFYGDDIALLKLAQKVKMSTHARPICLPCTMEANLALRRPQGSTCRDHENELLNKQSVPAHFVALNGSKLNINLKMGVEWTSCAEVVSQEKTMFPNLTDVREVVTDQFLCSGTQEDESPCKGESGGAVFLERRFRFFQVGLVSWGLYNPCLGSADKNSRKRAPRSKVPPPRDFHINLFRMQPWLRQHLGDVLNFLPL,percentage of EdU-negative,MCF7; [4],27.3 ± 1.1%
same,percentage of EdU-negative,MCF7; [5],27.9 ± 2%
same,percentage of EdU-negative,hTERT-HMEC; [4],5.66 ± 0.4%
same,percentage of EdU-negative,hTERT-HMEC; [5],16.21 ± 0.11%
MGPLPAPSCTQRITWKGLLLTASLLNFWNPPTTAEVTIEAQPPKVSEGKDVLLLVHNLPQNLPGYFWYKGEMTDLYHYIISYIVDGKIIIYGPAYSGRETVYSNASLLIQNVTRKDAGTYTLHIIKRGDETREEIRHFTFTLYLETPKPYISSSNLNPREAMEAVRLICDPETLDASYLWWMNGQSLPVTHRLQLSKTNRTLYLFGVTKYIAGPYECEIRNPVSASRSDPVTLNLLPKLPIPYITINNLNPRENKDVLAFTCEPKSENYTYIWWLNGQSLPVSPGVKRPIENRILILPSVTRNETGPYQCEIRDRYGGLRSNPVILNVLYGPDLPRIYPSFTYYRSGENLDLSCFTESNPPAEYFWTINGKFQQSGQKLFIPQITRNHSGLYACSVHNSATGKEISKSMTVKVSGPCHGDLTESQS,percentage of EdU-negative,MCF7; [6],25.2 ± 0.61%
same,percentage of EdU-negative,MCF7; [7],26.3 ± 0.9%
same,percentage of EdU-negative,hTERT-HMEC; [6],4.85 ± 0.41%
same,percentage of EdU-negative,hTERT-HMEC; [7],4.97 ± 0.19%
MGPLPVCLPIMLLLLLPSLLLLLLLPGPGSGEASRILRVHRRGILELAGTVGCVGPRTPIAYMKYGCFCGLGGHGQPRDAIDWCCHGHDCCYTRAEEAGCSPKTERYSWQCVNQSVLCGPAENKCQELLCKCDQEIANCLAQTEYNLKYLFYPQFLCEPDSPKCD,percentage of EdU-negative,MCF7; [3],29.3 ± 2.5%
same,percentage of EdU-negative,MCF7; protein concentration 0.225 µM,31.17 ± 0.13%
same,percentage of EdU-negative,hTERT-HMEC; [3],7.05 ± 0.95%
same,percentage of EdU-negative,hTERT-HMEC; protein concentration 0.225 µM,10.3 ± 2.1%
MGPLSAPPCTEHIKWKGLLLTALLLNFWNLPTTAQVMIEAQPPKVSEGKDVLLLVHNLPQNLTGYIWYKGQIRDLYHYITSYVVDGQIIIYGPAYSGRETVYSNASLLIQNVTREDAGSYTLHIIKRGDGTRGVTGYFTFTLYLETPKPSISSSNLNPREAMETVILTCNPETPDASYLWWMNGQSLPMTHRMQLSETNRTLFLFGVTKYTAGPYECEIWNSGSASRSDPVTLNLLHGPDLPRIFPSVTSYYSGENLDLSCFANSNPPAQYSWTINGKFQLSGQKLFIPQITPKHNGLYACSARNSATGEESSTSLTIRVIAPPGLGTFAFNNPT [Q9UQ72],percentage of EdU-negative,MCF7; [8],24.9 ± 4.1%
same,percentage of EdU-negative,MCF7; [9],26.7 ± 1.1%
same,percentage of EdU-negative,hTERT-HMEC; [8],4.83 ± 0.7%
same,percentage of EdU-negative,hTERT-HMEC; [9],5.46 ± 1.1%
MGPLSAPPCTEHIKWKGLLVTASLLNFWNLPTTAQVTIEAQPPKVSEGKDVLLLVHNLPQNLTGYIWYKGQIRDLYHYITSYVVDGQIIIYGPAYSGRETAYSNASLLIQNVTREDAGSYTLHIIKRGDGTRGVTGYFTFTLYLETPKPSISSSNLNPREAMETVILTCDPETPDTSYQWWMNGQSLPMTHRFQLSETNRTLFLFGVTKYTAGPYECEIRNSGSASRSDPVTLNLLHGPDLPRIHPSYTNYRSGDNLYLSCFANSNPPAQYSWTINGKFQQSGQNLFIPQITTKHSGLYVCSVRNSATGEESSTSLTVKVSASTRIGLLPLLNPT,percentage of EdU-negative,MCF7; [10],24.9 ± 2.1%
same,percentage of EdU-negative,MCF7; [11],25.4 ± 0.54%
same,percentage of EdU-negative,hTERT-HMEC; [10],4.65 ± 0.56%
same,percentage of EdU-negative,hTERT-HMEC; [11],5.32 ± 1.1%
MGPLSAPPCTQHITWKGLLLTASLLNFWNLPITAQVTIEALPPKVSEGKDVLLLVHNLPQNLAGYIWYKGQLMDLYHYITSYVVDGQINIYGPAYTGRETVYSNASLLIQNVTREDAGSYTLHIIKRGDRTRGVTGYFTFNLYLKLPKPYITINNSKPRENKDVLAFTCEPKSENYTYIWWLNGQSLPVSPRVKRPIENRILILPSVTRNETGPYECEIRDRDGGMRSDPVTLNVLYGPDLPSIYPSFTYYRSGENLYLSCFAESNPPAEYFWTINGKFQQSGQKLSIPQITTKHRGLYTCSVRNSATGKESSKSMTVEVSAPSGIGRLPLLNPI,percentage of EdU-negative,MCF7; [8],24.6 ± 2.5%
same,percentage of EdU-negative,MCF7; [9],26.86 ± 0.057%
same,percentage of EdU-negative,hTERT-HMEC; [8],4.75 ± 0.52%
same,percentage of EdU-negative,hTERT-HMEC; [9],4.28 ± 0.12%
